Experimental data: article PMC7927077, “Glucose-Binding of Periplasmic Protein GltB Activates GtrS-GltR Two-Component System in Pseudomonas aeruginosa” (Microorganisms, 2021)

Experiments:
[1] = molecular target: 6His-GtrS^LBD, the N-terminal 6His-tagged ligand-binding domain of GtrS (residues 29-199) (P. aeruginosa PAO1) (UniProt Q9HZ47); experiment: SPR; OpenSPR localized SPR; 6His-GtrS^LBD fixed on COOH chip by capture-coupling; 6His-GltB injected at 1000, 500, 250, 125 nM; 50 mM Tris, 50 mM NaCl, pH 7.0, 25 °C; one to one model
[2] = molecular target: 6His-GltB, the N-terminal 6His-tagged GltB (P. aeruginosa PAO1); experiment: SPR; OpenSPR localized SPR; 6His-GltB fixed on COOH chip by capture-coupling; 6His-PctA^LBD (1500-500 nM) or 6His-PA2788^LBD (500-100 nM) injected; 50 mM Tris, 50 mM NaCl, pH 7.0, 25 °C; one to one model
[3] = molecular target: T1, GltB (periplasmic glucose-binding protein) (Pseudomonas aeruginosa, UniProt Q9HZ48); experiment: ITC ([…] °C, one-site model); supported by concentration-dependent thermal shift
T1 construct: gene PA3190; 6His-GltB, the N-terminal 6His-tagged GltB

6His-GltB, the N-terminal 6His-tagged GltB (natural protein)
Kd [1]: 0.1 µM

6His-PctA^LBD, the N-terminal 6His-tagged ligand-binding domain of PctA (residues 30-278) (from UniProt G3XD24 30-278) (domain or fragment)
Kd [2]: 0.8 µM

OC[C@H]1OC(O)[C@H](O)[C@@H](O)[C@@H]1O (stereo partly shown) [glucose]
Kd [3]: 1.37 µM

B1: 6His-PA2788^LBD, the N-terminal 6His-tagged ligand-binding domain of PA2788 (residues 44-179) (domain or fragment)
chain: YLSMSISPETINVAGAQRMLSQKMAREALQLRLGAGDPKALAATIAQYERSAADLDAGNAERNVSRMGAPEIAAQRQKVAQIWGRYRAMLDQVAQPASQVDLRGFSQYSTELLGELNNLVSLMSARADSVQHTQMW
Kd [2]: 0.4 µM
